Values of other authors, collected in paper PMC7866199.

Columns and labels:
[1] = target: NPT2A C-terminal 22 aa (Homo sapiens) (UniProt Q06495)
[2] = target: GRK6A C-terminal PDZ ligand (Homo sapiens) (UniProt P43250)
UniProt P43250, sequence (P43250 555-576): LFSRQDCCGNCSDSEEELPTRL

UniProt Q06495, sequence (Q06495 618-639): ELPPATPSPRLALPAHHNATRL

- Kd [1]: 4 µM
- Kd [2]: 4 µM
Substance: NHERF1 (from UniProt O14745)
